One substance from patent US20120269801A1 can be followed below.

Test [1] has as its target CD59 (target protein) (human) (UniProt P13987). Kind of test: phage ELISA, CD59 coated directly, anti-M13-HRP; helper phage control. A general note: An ELISA detects its analyte on a solid surface through an enzyme-linked reagent.
For test [2], the target named is CD59 in membrane extract of lysed CD59-expressing red blood cells (UniProt P13987). Description: phage ELISA, membrane extract of CD59(+) red cells coated, anti-M13-HRP; helper phage control.

M13KO7 helper phage: the OD490 (Ag+ phage+) in test [1] came out at 0.046 OD. Moreover, the OD490 (Ag+ phage+, CD59(+)red cell) in test [2] was determined as 0.046 OD.
